# In publication PMC6879534, “Structural basis for DNA unwinding at forked dsDNA by two coordinating Pif1 helicases” (Nature Communications, 2019):
# Tests used:
# BaPif1 [1] = conditions: ssDNA-stimulated ATPase
# BaPif1 [2] = molecular target: BaPif1 (Bacteroides fragilis, UniProt Z9XEH3VG65); conditions: ssDNA-stimulated ATPase
# [3] = molecular target: BaPif1 E323A/K405A (Bacteroides sp (abstract); Bacterioides fragilis (methods))
# [4] = molecular target: BaPif1 F379A (Bacteroides fragilis (title/abstract: Bacteroides sp)) (UniProt A0A373G551); experiment: fluorescence polarization; conditions: Fluorescence polarization: 2.5 nM T15-3'F, buffer and temperature not in the material; crystals: 80 mM NaCl, 40 mM sodium cacodylate pH 6.0, 35% MPD, 12 mM …
# [5] = molecular target: BaPif1 H236A (Bacteroides fragilis (title/abstract: Bacteroides sp)) (UniProt A0A373G551); experiment: fluorescence polarization; conditions: Fluorescence polarization: 2.5 nM T15-3'F, buffer and temperature not in the material; crystals: 80 mM NaCl, 40 mM sodium cacodylate pH 6.0, 35% MPD, 12 mM …
# [6] = molecular target: BaPif1 wild type (Bacteroides fragilis (title/abstract: Bacteroides sp)) (UniProt A0A373G551); experiment: fluorescence polarization; conditions: Fluorescence polarization: 2.5 nM T15-3'F, buffer and temperature not in the material; crystals: 80 mM NaCl, 40 mM sodium cacodylate pH 6.0, 35% MPD, 12 mM …
# Sequence of BaPif1 (5FHD_1 entry or part of it E323K): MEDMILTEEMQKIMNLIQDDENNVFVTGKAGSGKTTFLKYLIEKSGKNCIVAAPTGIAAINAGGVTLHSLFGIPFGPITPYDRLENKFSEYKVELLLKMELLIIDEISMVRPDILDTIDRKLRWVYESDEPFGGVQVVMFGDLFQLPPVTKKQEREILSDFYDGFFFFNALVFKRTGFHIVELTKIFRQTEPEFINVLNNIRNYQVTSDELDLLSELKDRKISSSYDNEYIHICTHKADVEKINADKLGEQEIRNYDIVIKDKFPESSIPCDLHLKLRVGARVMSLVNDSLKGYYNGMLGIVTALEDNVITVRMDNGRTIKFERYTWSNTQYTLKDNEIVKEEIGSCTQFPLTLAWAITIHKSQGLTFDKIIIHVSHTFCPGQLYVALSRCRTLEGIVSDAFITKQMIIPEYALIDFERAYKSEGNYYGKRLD
compound,measurement,setting,value
Nc1ncnc2c1ncn2[C@@H]1O[C@H](COP(=O)(O)OP(=O)(O)OP(=O)(O)O)[C@@H](O)[C@H]1O [ATP],ATP hydrolysis rate,BaPif1 [1],The rates of ATP hydrolysis by both the E323A/K405A and E323K variants
same,ATP hydrolysis rate,BaPif1 [2],only slightly increased relative to the wild type enzyme
BaPif1 E323A/K405A (enzyme),"rate of unwinding of the leading duplex (rapid chemical quench flow, single turnover)",[3],33 s⁻¹
same,"rate of unwinding of the parental duplex (rapid chemical quench flow, single turnover)",[3],31 s⁻¹
TTTTTTTTTTTTTTT [T15-3'F],Kd,[4],250 nM
same,Kd,[5],200 nM
same,Kd,[6],74 nM
